Here are results for one molecule from patent publication US20190119358A1.

Bridges are numbered along the chain shown (N, C = ends). [ ]: non-standard residue; d: D form. m‑xylylene = m-xylylene thioether bridge between Cys; Trp(7-aza) = N[C@@H](Cc1c[nH]c2ncccc12)C(=O)O; NMePhe(4-F) = CN[C@@H](Cc1ccc(F)cc1)C(=O)O; Phg = N[C@H](C(=O)O)c1ccccc1; Nva = CCC[C@H](N)C(=O)O

For this assay, the target named is GMPPNP-loaded H-Ras or GTP-loaded K-Ras. Briefly: FP competition, displacement of probe R4007 from Ras.

In general, IC50 refers to the concentration that gives 50% inhibition. Lower therefore signals greater potency. {Alexa Fluor 594}-[Nva]CY[Nva][Phg][NMePhe(4-F)]TP[Trp(7-aza)]C[Trp(7-aza)]EE-NH2 (linker 2-10 via m‑xylylene) [R4154] returned an IC50 of 37.4 µM.
